Results on five molecules are retold here after patent US20160002337A1 (ALBERT EINSTEIN COLLEGE OF MEDICINE, published 2016).

Assay [1] has as its target T1, Fc portion of human IgG1 (Ig control) (human, UniProt P01857-1 99-330 = IgG part, limits assumed).
T1 construct: domain: Fc; Control protein made in Drosophila S2 cells; also called control Ig; human IgG1 Fc tag
Description: FACS on 3T3 transfectants, PE anti-human IgG Fc. The procedure: (§1) Antibodies and flow cytometry. Cells were incubated with Fc blocking reagents and then stained with combinations of the following anti-human antibodies: CD152-PE, CD28-PE, B7-1-PE, B7-2-PE, PD-1-PE, PD-L1-PE, PD-L2-PE, ICOS-PE, ICOSL-PE, B7H4-PE, CD14-FITC, CD19-FITC, CD8a-Percp-Cy5.5, CD4-APC, CD83-APC, streptavidin and isotype controls (eBioscience). Biotinylated anti-hB7-H3 was purchased from R&D. For receptor binding, cells were incubated with HHLA2-Ig, B7x-Ig, or control Ig for 45 min on ice and then stained with PE-anti-human IgG Fc (Jackson Immunoresearch). Samples were acquired on a FACSCalibur, LSRII or LSRII yellow (BD Biosciences), and analyzed with FlowJo (Treestar).

Assay [2] has as its target T2, B7x-Ig (human, UniProt Q7Z7D3 25-259; P01857 99-330 = IgG part, limits assumed).
T2 construct: extracellular domain;domain: Fc; Made in Drosophila S2 cells; Used as a control fusion protein; also called B7x-Ig fusion protein
The assay is described as follows: FACS on 3T3 transfectants, PE anti-human IgG Fc. The procedure:
as §1

The target of assay [3] is T2, B7x-Ig. Description: FACS on 3T3 or CT26 transfectants, PE anti-human IgG Fc. The procedure:
as §1

T2 sequence (Q7Z7D3 other isoform, or with tags, fused parts or gaps limits assumed): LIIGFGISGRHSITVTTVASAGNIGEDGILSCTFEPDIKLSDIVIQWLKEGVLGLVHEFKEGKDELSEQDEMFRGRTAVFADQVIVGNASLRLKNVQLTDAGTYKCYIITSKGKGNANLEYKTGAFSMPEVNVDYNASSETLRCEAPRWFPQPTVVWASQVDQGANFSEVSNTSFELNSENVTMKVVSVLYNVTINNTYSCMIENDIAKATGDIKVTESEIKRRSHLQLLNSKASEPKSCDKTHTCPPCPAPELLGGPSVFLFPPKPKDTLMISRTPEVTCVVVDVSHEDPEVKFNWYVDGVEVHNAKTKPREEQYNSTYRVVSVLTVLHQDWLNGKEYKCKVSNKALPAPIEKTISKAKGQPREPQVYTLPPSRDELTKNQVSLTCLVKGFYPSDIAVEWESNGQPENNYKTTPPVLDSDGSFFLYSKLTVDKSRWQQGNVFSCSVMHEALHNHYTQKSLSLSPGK

B1: human ICOS on transfected cells (receptor, UniProt Q9Y6W8 21-199, looked up)
chain: EINGSANYEMFIFHNGGVQILCKYPDIVQQFKMQLLKGGQILCDLTKTKGSGNTVSIKSLKFCHSQLSNNSVSFFLYNLDHSHANYYFCNLSIFDPPPFKVTLTGGYLHIYESQLCCQLKFWLPIGCAAFVVVCILGCILICWLTKKKYSSSVHDPNGEYMFMRAVNTAKKSRLTDVTL
notes: whole, on cells
B1: the binding result (in assay [1]; with B7x-Ig [2]) was “no binding” in each case.

B2: human B7-2 on transfected cells (ligand, UniProt P42081 24-329, looked up)
chain: APLKIQAYFNETADLPCQFANSQNQSLSELVVFWQDQENLVLNEVYLGKEKFDSVHSKYMGRTSFDSDSWTLRLHNLQIKDKGLYQCIIHHKKPTGMIRIHQMNSELSVLANFSQPEIVPISNITENVYINLTCSSIHGYPEPKKMSVLLRTKNSTIEYDGVMQKSQDNVTELYDVSISLSVSFPDVTSNMTIFCILETDKTRLLSSPFSIELEDPQPPPDHIPWITAVLPTVIICVMVFCLILWKWKKKKRPRNSYKCGTNTMEREESEQTKKREKIHIPERSDEAQRVFKSSKTSSCDKSDTCF
notes: whole, on cells; also called CD86
In the case of B2, in the assay with B7x-Ig [3], the binding result is recorded as “no binding”.

B3: human B7h on transfected cells (ligand, UniProt O75144 19-302, looked up)
chain: DTQEKEVRAMVGSDVELSCACPEGSRFDLNDVYVYWQTSESKTVVTYHIPQNSSLENVDSRYRNRALMSPAGMLRGDFSLRLFNVTPQDEQKFHCLVLSQSLGFQEVLSVEVTLHVAANFSVPVVSAPHSPSQDELTFTCTSINGYPRPNVYWINKTDNSLLDQALQNDTVFLNMRGLYDVVSVLRIARTPSVNIGCCIENVLLQQNLTVGSQTGNDIGERDKITENPVSTGEKNAATWSILAVLCLLVVVAVAIGWVCRDRCLQHSYAGAWAVSPETELTGHV
notes: whole, on cells; also called ICOS-L
On to B3, for which, in the assay with B7x-Ig [3], the binding result is reported as “no binding”.

B4: human B7-1 on transfected cells (ligand, UniProt P33681 35-288, looked up)
chain: VIHVTKEVKEVATLSCGHNVSVEELAQTRIYWQKEKKMVLTMMSGDMNIWPEYKNRTIFDITNNLSIVILALRPSDEGTYECVVLKYEKDAFKREHLAEVTLSVKADFPTPSISDFEIPTSNIRRIICSTSGGFPEPHLSWLENGEELNAINTTVSQDPETELYAVSSKLDFNMTTNHSFMCLIKYGHLRVNQTFNWNTTKQEHFPDNLLPSWAITLISVNGIFVICCLTYCFAPRCRERRRNERLRRESVRPV
notes: whole, on cells; also called CD80
For B4, the binding result in the assay with B7x-Ig [3] is reported as “no binding”.

B5: human PD-L2 on transfected cells (ligand, UniProt Q9BQ51 20-273, looked up)
chain: LFTVTVPKELYIIEHGSNVTLECNFDTGSHVNLGAITASLQKVENDTSPHRERATLLEEQLPLGKASFHIPQVQVRDEGQYQCIIIYGVAWDYKYLTLKVKASYRKINTHILKVPETDEVELTCQATGYPLAEVSWPNVSVPANTSHSRTPEGLYQVTSVLRLKPPPGRNFSCVFWNTHVRELTLASIDLQSQMEPRTHPTWLLHIFIPFCIIAFIFIATVIALRKQLCQKLYSSKDTTKRPVTTTKREVNSAI
notes: whole, on cells; also called B7-DC
As to B5, the binding result with B7x-Ig [3] is “no binding”.
